# Laboratory results from the supplement of paper PMC9170038.
# Tested on: MS2 coat protein
# Assay: apparent KD of MS2 coat protein; designed switch direction (-1 OFF switch, 1 ON switch): 1; higher = weaker reporter binding
# Procedure, shortened: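 Three titration conditions were used: no input, 200 uM small-molecule ligand, and an oligonucleotide input. In each, SNAP-549-labelled MS2 coat protein was raised from 0.7 or 1.5 nM, doubling, to 3 µM over designed RNA switches transcribed on Illumina chips by stalled E. coli RNA polymerase. Curve fits of normalised cluster fluorescence gave values whose per-design median over clusters is the apparent KD.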
# [1] = input ligand: microRNA oligo, concentration not stated
# [2] = Eterna round: R95, input ligand: FMN 200 uM
# [3] = Eterna round: R95, input ligand: microRNA oligo, concentration not stated
# [4] = Eterna round: R95, input ligand: none
Sequence,apparent KD of MS2 coat protein (input ligand: FMN 200 uM) [nM],apparent KD of MS2 coat protein [1] [nM],apparent KD of MS2 coat protein (input ligand: none) [nM],apparent KD of MS2 coat protein [2] [nM],apparent KD of MS2 coat protein [3] [nM],apparent KD of MS2 coat protein [4] [nM]
"AAAAUGGUAUGUUACAUGAGGAUCACCCAUGUACCGUCAUCUGAGGAUAUGGUGAUGUAGAAGAAUCAGAAGGCAGACAUUUAA [AK SSNG3-V2-25] (Eterna round: R96, puzzle: Same State NG 3)",17.3,20,34.1,,,
UAGAGAGGAAGCGAGGAUAUCGUGUUAGGUACAUGAGGAUCACCCAUGUUGUAGGUAGAGGUAGGCGAGAAGGCGCAGGAGAGGA [JR_SS2_Sub092] (puzzle: Same State 2),,,,35.6,37.6,66.2
"CUCAACAACACAGGAUAUCCAGGGAAAAGACCUGGAGAAGGGUGACCAACAUGAGGAUCACCCAUGUGACAGCCAGGCUGUCUG [Esisiszaon] (Eterna round: R96, puzzle: Same State NG 1)",164,84.4,47.7,,,
GGAGAACAUGAGGAUCACCCAUGUGAGAGGGAUGUAGGAUAUGUGAGGAGUAAAGGAGGGACAGAAGGACAGAGAU [JR_SS!_Sub068] (puzzle: Same State 1),,,,37.4,40.5,47.7
"GGACGUCAACUCAACAAUUAAACAUGAGGAUCACCCAUGUCACAGGAUAUGGAUCCUAAUUGGAUCCAGAAGGGUGAGACGUCC [Fiskers NG3ss - 42] (Eterna round: R96, puzzle: Same State NG 3)",95.9,100,79.2,,,
"GAGGGACAGACCAACAUGAGGAUCACCCAUGUCCUCGCAGGUCAGGAUAUCCGGCCAACAGGCAAGGAGAAGGGACGGUGAACC (Eterna round: R96, puzzle: Same State NG 3)",418,344,479,,,
"AACAUGUGGUGUCACAUGAGGAUCACCCAUGUGGUAAAAGCUGAGGAUAUAAAGAGAAACAUGAAUUAGAAGGUAGGAUCACAA [AK SSNG3-V2-19] (Eterna round: R96, puzzle: Same State NG 3)",177,138,127,,,
GUAGAUAUAGAGGAGGAUAUUCAAUGAGGAACAUGAGGAUCACCCAUGUAAGAGAGAGAUGAUGAGAAGAAGGCUUAGAGGGAUG [Altered State 2-3 - Jieux - Same State 2] (puzzle: Same State 2),,,,46.5,84.6,62
UGGAUCUAGGCUUGCCUGGGUCCAUGCUGACAUGAGGAUCACCCAUGUGCAUCCUACAAGCUUUUUGCUUGUCUGCC (puzzle: Sensor for hsa-mir-208a),,,,146,122,93.7
"AUUGGGUAACGAGGAUAUCGUAUUUGUUUGUUUCGAGAAGGCGUUAUAGUUUCUUUCUAUUGUUACAUGAGGAUCACCCAUGUU [JR_SSNG1_Sub052] (Eterna round: R96, puzzle: Same State NG 1)",19.1,15,19.9,,,
"CACAAUCUAUCUGAGGAUAUCAUGAAAAAAACAUGAGGAUCACCCAUGUGCAGGAAAACUGCAUAUGAGAAGGCAGAUAGAUUGU [salish99_SS2_r3_015] (Eterna round: R96, puzzle: Same State 2)",,514,,,,
"AAAGAAAACGCAGGAUAUCCCGGAAUGGAAACGGGAGAAGGGUGACCGGUACAUGAGGAUCACCCAUGUAGAGCACAGGCUCAA [Sousdi] (Eterna round: R96, puzzle: Same State NG 1)",3380,39.4,922,,,
"GCUCGGACGAUGACCCACAUGAGGAUCACCCAUGUGCGUGGGCAGGAUAUCUAGAUUAAGGAUGUAGAGAAGGGUCGACCGAGC [SameState NG3 #30] (Eterna round: R96, puzzle: Same State NG 3)",415,58.4,386,,,
"GUCCAAAACACAGGAUAUCCCAGUCAUGAACUGGGAGAAGGGUGGCCACAUGAGGAUCACCCAUGUGAAGUGCGAGAGGCACGA [Arquarais] (Eterna round: R96, puzzle: Same State NG 1)",253,595,937,,,
GUUAUACAUGAGGAUCACCCAUGUCAAUGUAGUCGAGGAUAUGGGCAGCUAUGUAGCGUACUAGAAGGCGAAGAGU [JL-ss1-3.13 ViennaUCT mod] (puzzle: Same State 1),,,,68.4,43.1,103
"AGAUCAUGACGAGGAUAUGGUACAUGAGGAUCACCCAUGUAUGUACCAUAACGCGUACGACGAAACCAGAAGGCGUCGUGAUCA [Mat - Same State NG 2 - JL mod - D41] (Eterna round: R96, puzzle: Same State NG 2)",9.06,12.2,20.7,,,

Sequence,apparent KD of MS2 coat protein (input ligand: FMN 200 uM) [nM],apparent KD of MS2 coat protein [1] [nM],apparent KD of MS2 coat protein (input ligand: none) [nM],apparent KD of MS2 coat protein [2] [nM],apparent KD of MS2 coat protein [3] [nM],apparent KD of MS2 coat protein [4] [nM]
"AUUGCUAGCGCAGGAUAUGAUGCGAAAAUUGCGUCAGAAGGGUGUAAUCUCUCAUUGCGGGAGGACAUGAGGAUCACCCAUGUC [SameState NG1 #84] (Eterna round: R96, puzzle: Same State NG 1)",,123,,,,
"GCCAACACAUGAGGAUAUGGCACCUUAUUGGUGCCAGAAGGCAUGUCUAUUGACAUGAGGAUCACCCAUGUAUUAUAGUUGGCA [Fiskers NG1ss - 14] (Eterna round: R96, puzzle: Same State NG 1)",75.2,214,1210,,,
UGUCCAGCCUGAGCUGGACAAAAGCAUGUACAUGAGGAUCACCCAUGUUCAUGUACAAGCUUUUUGCUCGUCUUAUU [salish99_208a_r3_048] (puzzle: Sensor for hsa-mir-208a),,,,465,14.1,491
"GCGGACCUCACAUGAGGAUCACCCAUGUUGCGGAGACGCAAUGAGGAUAUCGAUGGGUUUCCCGUCGAGAAGGCAUAAAUCCGC [JL SSNG3 3.93 mod 4] (Eterna round: R96, puzzle: Same State NG 3)",109,44.5,56.6,,,
"UGGAGACGUCAAGGAUAUGCUACCGUUUCGGUAGCAGAAGGUGAUCACAUGAGGAUCACCCAUGUAUGCAUGCGUGAGCGUGCU [JL SSNG1 3.52] (Eterna round: R96, puzzle: Same State NG 1)",72.1,2.49,6.24,,,
AUAAAACAUGAGGAUCACCCAUGUCAACAAAGUCGAGGAUAUGGGCAAAUAAAAUAAGAACUAGAAGGCGAAUAAU [salish99_ss1_r3_031] (puzzle: Same State 1),,,,374,1770,139
AGUCCAGCGAAAGCUGGACAAAAGCAUGUACAUGAGGAUCACCCAUGUUCAUGUACAAGCUUUUUGCUCGUUUUAAA [JL mod - D95 - 15] (puzzle: Sensor for hsa-mir-208a),,,,590,13.5,643
"AUUGCUAGCACAGGAUAUCAUGCGAAAAUUGCGUGAGAAGGGUGGACACUGUCAUUCACGGAGGACAUGAGGAUCACCCAUGUC [SameState NG1 #79] (Eterna round: R96, puzzle: Same State NG 1)",77.1,59,74.9,,,
"CCGAUAAAUGGAGGAUAUGGAGCCUUAUUGGCUCCAGAAGGCUAAUAACAUGAGGAUCACCCAUGUCGGCGGUCUAAUGACCGA [Eli NG1ss - 51] (Eterna round: R96, puzzle: Same State NG 1)",,46.4,,,,
"CCGUUCAAUAAACAUGAGGAUCACCCAUGUAAUAAUAAGGGUGAGGAUAUGCAUCUGAAACAGGUGCAGAAGGCAUAAGAGCGG [JL SSNG3 3.90] (Eterna round: R96, puzzle: Same State NG 3)",487,289,585,,,
"GGAGAACAUGAGGAUCACCCAUGUGAGAGGGAUGUAGGAUAUGUGAGGAGUAAAGGAGGGACAGAAGGACAGAGAU [JR_SS!_Sub068] (Eterna round: R96, puzzle: Same State 1)",,30.4,,,,
"UGCCGGAUACCGACUACAUGAGGAUCACCCAUGUUAUCUCGUUAGGAUAUACUAACAACAGAUUAGUAGAAGGGACGCGGGCUU [Eternabot solution 23] (Eterna round: R96, puzzle: Same State NG 3)",25.5,24.6,30.7,,,
"GUGGUCAGACAUGAGGAUCACCCAUGUGGAAUAAAUAAGGACUAGGAUAUUUAAUAUAGGAUAUAAAAGAAGGAGUGGUUGGUG (Eterna round: R96, puzzle: Same State NG 3)",85.1,44.1,59.6,,,
"GUAGCAUACCGAGGAUAUUCACAUGAGGAUCACCCAUGUAUUAAUAGGCCACAUUAGUGGCCUUGGGAGAAGGCGGAAUGCUAC [Xeonanis - 20 Mod48] (Eterna round: R96, puzzle: Same State NG 2)",10.8,11,14.6,,,
CAGUACUGUCGAGAGGAUAUGCGGUGAUGGACAUGAGGAUCACCCAUGUUAGCGACAGCAUCACGGCAGAAGGCUCUACUGCUGC [Soteed Omei mod 33] (puzzle: Same State 2),,,,,39.4,
"UUGAAGAAUUAAGGAUAUUGAGUACAUAUGUUUAACAUGAGGAUCACCCAUGUGGGUUGCGGUAUCGAGAAGGUAAAAUACUAG [Mat - same State NG 2 - JL mod - D73] (Eterna round: R96, puzzle: Same State NG 2)",156,126,87.9,,,
